{
  "source": "patent US20240182596A1",
  "about": "(TUBULIS, published 2024)",
  "binders": {"B1": {"name": "AV25 mAb, LALA-silenced (AV25 HC-LALA) (antibody, human IgG1, kappa, L234A L235A)", "heavy": "not shown", "light": "DIQMTQSPSSLSASVGDRVTITCSASQDIGNFLNWYQQKPGKTVKVLIYYASSLYSGVPSRFSGSGSGTDYTLTISSLQPEDFATYYCQQYSKLPLTFGQGTKLELKRTVAAPSVFIFPPSDEQLKSGTASVVCLLNNFYPREAKVQWKVDNALQSGNSQESVTEQDSKDSTYSLSSTLTLSKADYEKHKVYACEVTHQGLSSPVTKSFNRGEC", "notes": "also called unmodified AV25 mAb"}},
  "key": {"[1]": {"target": "T1, HEK293 cyno-NaPi2B-mCherry (Macaca fascicularis, UniProt A0A2K5UHY1)", "T1 construct": "full-length mCherry fusion stably expressed on HEK293 cells; also called cynomolgus full-length NaPi2b-mCherry on HEK293 cells", "T1 sequence (target on cells)": "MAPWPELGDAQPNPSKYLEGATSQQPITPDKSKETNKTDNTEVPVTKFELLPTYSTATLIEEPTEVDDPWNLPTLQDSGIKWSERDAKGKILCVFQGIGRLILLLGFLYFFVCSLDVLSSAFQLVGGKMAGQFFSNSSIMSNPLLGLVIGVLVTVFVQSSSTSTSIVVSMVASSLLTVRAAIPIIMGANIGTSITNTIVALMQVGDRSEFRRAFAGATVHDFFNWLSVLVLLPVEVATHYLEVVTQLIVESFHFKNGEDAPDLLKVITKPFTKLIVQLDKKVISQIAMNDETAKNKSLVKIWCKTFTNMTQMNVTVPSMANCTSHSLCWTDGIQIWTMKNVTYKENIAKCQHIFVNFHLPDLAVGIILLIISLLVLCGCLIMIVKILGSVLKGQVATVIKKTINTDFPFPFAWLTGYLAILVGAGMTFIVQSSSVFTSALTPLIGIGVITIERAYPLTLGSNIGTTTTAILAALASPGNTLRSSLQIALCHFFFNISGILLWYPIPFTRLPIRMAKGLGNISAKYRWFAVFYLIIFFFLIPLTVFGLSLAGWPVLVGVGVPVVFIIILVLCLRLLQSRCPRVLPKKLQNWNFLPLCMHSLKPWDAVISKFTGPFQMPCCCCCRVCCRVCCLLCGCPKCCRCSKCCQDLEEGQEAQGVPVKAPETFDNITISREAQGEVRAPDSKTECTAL", "test": "flow cytometry on HEK293 cells stably expressing cynomolgus full-length NaPi2b-mCherry, Alexa-dye anti-human IgG H+L secondary antibody, MFI ratio, one-site specific binding fit; the Kd table prints no unit, the concentration axis is in nM", "source_text": "(§1) HEK293 cells stably overexpressing human and rat Napi2b were generated by stable integration of a human or rat full-length Napi2b-mCherry-(GGGS)3x-mCherry expression construct under control of a human EF1 promoter and a Puromycin-selection cassette under a CMV promoter into the parental HEK293 cell line. In brief, cells were transfected with the linearized plasmids using Lipfectamine 2000 (Thermo Fisher) and selected with Puromycin antibiotic. Cells were then single cell cloned in 96-well plates via serial dilution under continuous antibiotic selection. Clones were screened for target expression via flow cytometry and mCherry fluorescence via flow cytometry and fluorescence microscopy. Target- and mCherry-positive clones were expanded and used for further experiments. […] Binding of antibodies was investigated on mCherry-positive cells. Mean fluorescence intensity (MFI) ratios were normalized to the secondary antibody control. The assay was performed in duplicates and data points were analyzed by a non-linear regression using a one-site specific binding model to derive KD values using Prism 9 software."}, "[2]": {"target": "T2, human NaPi2b on NaPi2b-positive cell lines OVCAR-3 and HCC-78 (human, UniProt O95436 1-690)", "T2 construct": "Endogenous protein", "T2 sequence": "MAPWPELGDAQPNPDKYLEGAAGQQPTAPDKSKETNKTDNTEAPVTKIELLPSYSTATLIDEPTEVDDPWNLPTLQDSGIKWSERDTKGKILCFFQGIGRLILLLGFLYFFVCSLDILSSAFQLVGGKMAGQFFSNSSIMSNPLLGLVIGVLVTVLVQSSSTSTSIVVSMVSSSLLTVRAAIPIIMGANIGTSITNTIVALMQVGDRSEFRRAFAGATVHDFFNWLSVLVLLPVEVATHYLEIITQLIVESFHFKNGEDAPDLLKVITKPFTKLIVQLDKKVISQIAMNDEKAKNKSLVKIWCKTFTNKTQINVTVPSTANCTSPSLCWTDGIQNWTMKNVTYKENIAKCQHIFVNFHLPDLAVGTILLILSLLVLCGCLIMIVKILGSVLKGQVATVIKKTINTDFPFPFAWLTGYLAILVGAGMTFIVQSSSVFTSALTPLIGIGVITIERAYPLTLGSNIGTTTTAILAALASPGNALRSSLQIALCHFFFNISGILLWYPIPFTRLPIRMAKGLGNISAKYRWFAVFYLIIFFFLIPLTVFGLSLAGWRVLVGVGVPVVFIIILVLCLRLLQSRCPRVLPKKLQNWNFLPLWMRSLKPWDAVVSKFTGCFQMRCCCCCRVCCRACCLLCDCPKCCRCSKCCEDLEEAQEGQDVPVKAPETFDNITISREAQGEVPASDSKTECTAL", "test": "flow cytometry on NaPi2b-positive OVCAR-3 cells, Alexa-dye-labeled anti-human IgG H+L secondary antibody, MFI ratio normalized to the non-specific binding control", "procedure": "To determine concentration-dependent binding, NaPi2b-positive OVCAR-3 and HCC-78 were incubated with antibodies in concentrations ranging from 0.00075 to 30 μg/ml, stained with an Alexa-dye-labeled anti-human IgG H+L secondary antibody (Thermo Fisher Scientific), and analyzed by flow cytometry. Mean fluorescence intensity (MFI) ratios were normalized to the non-specific binding control. The assay was performed in duplicates and data points were analyzed by a non-linear regression using a one-site specific binding model using Prism 9 software."}, "[3]": {"target": "T3, HEK293 rat-NaPi2B-mCherry (Rattus norvegicus, UniProt Q9JJ09)", "T3 construct": "full-length mCherry fusion stably expressed on HEK293 cells; also called rat full-length NaPi2b-mCherry on HEK293 cells", "T3 sequence (target on cells, looked up)": "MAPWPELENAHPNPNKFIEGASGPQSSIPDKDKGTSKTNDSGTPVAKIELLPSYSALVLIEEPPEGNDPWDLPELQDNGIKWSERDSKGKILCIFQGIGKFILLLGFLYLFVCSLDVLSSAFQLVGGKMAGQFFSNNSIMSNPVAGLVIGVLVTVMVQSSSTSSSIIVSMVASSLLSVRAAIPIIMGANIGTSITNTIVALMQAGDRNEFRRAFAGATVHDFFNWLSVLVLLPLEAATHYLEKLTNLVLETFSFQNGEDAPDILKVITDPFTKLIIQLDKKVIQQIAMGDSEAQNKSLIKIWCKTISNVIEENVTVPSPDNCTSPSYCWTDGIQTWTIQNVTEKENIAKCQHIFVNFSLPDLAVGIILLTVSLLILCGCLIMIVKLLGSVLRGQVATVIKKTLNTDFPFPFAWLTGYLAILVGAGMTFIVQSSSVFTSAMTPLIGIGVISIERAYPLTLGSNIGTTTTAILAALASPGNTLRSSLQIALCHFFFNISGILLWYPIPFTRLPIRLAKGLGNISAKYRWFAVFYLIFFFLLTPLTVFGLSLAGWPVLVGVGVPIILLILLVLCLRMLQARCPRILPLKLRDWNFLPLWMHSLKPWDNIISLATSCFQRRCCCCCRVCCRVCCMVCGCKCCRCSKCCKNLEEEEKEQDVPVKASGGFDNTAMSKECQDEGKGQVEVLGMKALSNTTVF", "test": "flow cytometry on HEK293 cells stably expressing rat full-length NaPi2b-mCherry, Alexa-dye anti-human IgG H+L secondary antibody, MFI ratio, one-site specific binding fit; the Kd table prints no unit, the concentration axis is in nM", "source_text": "as §1"}, "FcγRIIa (CD32) (H131)": {"target": "T4, FcγRIIa (CD32) (H131) (Fused to the SmBiT luciferase fragment (Promega Lumit reagent), not carried in the letters)", "T4 construct": "m20 joins both polymorphic variants; also called H131 variant of m20; not shown: SmBiT tag (and any linker or purification tag) of Promega's FcγR-SmBiT fusion", "T4 chain": "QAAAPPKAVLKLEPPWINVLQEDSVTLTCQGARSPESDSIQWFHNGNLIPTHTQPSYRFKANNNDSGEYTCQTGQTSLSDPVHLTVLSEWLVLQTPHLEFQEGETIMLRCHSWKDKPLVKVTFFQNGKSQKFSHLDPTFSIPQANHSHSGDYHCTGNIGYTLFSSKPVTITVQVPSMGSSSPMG", "test": "Lumit FcγRIIa (H131) Binding Immunoassay (Promega), left panel FcγRIIa (CD32) (H131), competition with Tracer-LgBiT for FcγR-SmBiT, n=1"}},
  "data": [
    {"binder": "B1", "values": [
      {"measurement": "Kd", "setting": "[1]", "result": 1.43, "unit": "nM"},
      {"measurement": "EC50 (read off the curve)", "setting": "[2]", "result": "~0.5", "unit": "µg/mL"},
      {"measurement": "Kd", "setting": "[3]", "result": 0.539, "unit": "nM"},
      {"measurement": "binding result", "setting": "FcγRIIa (CD32) (H131)", "result": "no binding"}
    ]}
  ]
}
